Measurements taken from article PMC6375917 (2019).

B1: His-tagged but otherwise wild type Tim50 [yeast] / Tim23 [yeast (endogenous in yeast mitochondria)] (parent complex)
chain 1: QKETKDDKPKSILTDDMLFKAGVDVDEKGQGKNEETSGEGGEDKNEPSSKSEKSRRKRQTSTDIKREKYANWFYIFSLSALTGTAIYMARDWEPQESEELKKDIDNGYTLSLMYKRFKARFNSMFTYFQEPPFPDLLPPPPPPPYQRPLTLVITLEDFLVHSEWSQKHGWRTAKRPGADYFLGYLSQYYEIVLFSSNYMMYSDKIAEKLDPIHAFVSYNLFKEHCVYKDGVHIKDLSKLNRDLSKVIIIDTDPNSYKLQPENAIPMEPWNGEADDKLVRLIPFLEYLATQQTKDVRPILNSFEDKKNLAEEFDHRVKKLKDKFYGDHKSGGNWAMTALGLGNSLGGSTKFPLDLIHEEGQKNYLMFMKMIEEEKEKIRIQQEQMGGQTFTLKDYVEGNLPSPEEQMKIQLEKQKEVDALFEEEKKKKKIAESK
chain 2: MSWLFGDKTPTDDANAAVGGQDTTKPKELSLKQSLGFEPNINNIISGPGGMHVDTARLHPLAGLDKGVEYLDLEEEQLSSLEGSQGLIPSRGWTDDLCYGTGAVYLLGLGIGGFSGMMQGLQNIPPNSPGKLQLNTVLNHITKRGPFLGNNAGILALSYNIINSTIDALRGKHDTAGSIGAGALTGALFKSSKGLKPMGYSSAMVAAACAVWCSVKKRLLEK

Variants of: B1
Assay: pull-down (Ni-NTA agarose beads), immunoblot quantification; T, 10% of total material. B, 100% of bound material.; parent: 100; read off a plot

Variant | percent of parent
chain 1 QKETKDDKPKSILTDDMLFKAGVDVDEKGQGKNEETSGEGGEDKNEPSSKSEKSRRKRQTSTDIKREKYANWFYIFSLSALTGTAIYMARDWEPQESEELKKDIDNGYTLSLMYKRFKARFNSMFTYFQEPPFPDLLPPPPPPPYQRPLTLVITLEDFLVHSEWSQKHGWRTAKRPGADYFLGYLSQYYEIVLFSSNYMMYSDKIAEKLDPIHAFVSYNLFKEHCVYKDGVHIKDLSKLNRDLSKVIIIDTDPNSYKLQPENAIPMEPWNGEADDKLVRLIPFLEYLATQQTKDVSPILNSFEDKKNLAEEFDHRVKKLKDKFYGDHKSGGNWAMTALGLGNSLGGSTKFPLDLIHEEGQKNYLMFMKMIEEEKEKIRIQQEQMGGQTFTLKDYVEGNLPSPEEQMKIQLEKQKEVDALFEEEKKKKKIAESK [chain 1 R296S] | ~115%
chain 1 QKETKDDKPKSILTDDMLFKAGVDVDEKGQGKNEETSGEGGEDKNEPSSKSEKSRRKRQTSTDIKREKYANWFYIFSLSALTGTAIYMARDWEPQESEELKKDIDNGYTLSLMYKRFKARFNSMFTYFQEPPFPDLLPPPPPPPYQRPLTLVITLEDFLVHSEWSQKHGWRTAKRPGADYFLGYLSQYYEIVLFSSNYMMYSDKIAEKLDPIHAFVSYNLFKEHCVYKDGVHIKVLSKLNRDLSKVIIIDTDPNSYKLQPENAIPMEPWNGEADDKLVRLIPFLEYLATQQTKDVRPILNSFEDKKNLAEEFDHRVKKLKDKFYGDHKSGGNWAMTALGLGNSLGGSTKFPLDLIHEEGQKNYLMFMKMIEEEKEKIRIQQEQMGGQTFTLKDYVEGNLPSPEEQMKIQLEKQKEVDALFEEEKKKKKIAESK [chain 1 D235V] | ~37%
chain 1 QKETKDDKPKSILTDDMLFKAGVDVDEKGQGKNEETSGEGGEDKNEPSSKSEKSRRKRQTSTDIKREKYANWFYIFSLSALTGTAIYMARDWEPQESEELKKDIDNGYTLSLMYKRFKARFNSMFTYFQEPPFPDLLPPPPPPPYQRPLTLVITLEDFLVHSEWSQKHGWRTAKRPGADYFLGYLSQYYEIVLFSSNYMMYSDKIAEKLDPIHAFVSYNLFKEHCVYKDGVHIKVLSKLNRDLSKVIIIDTDPNSYKLQPENAIPMEPWNGEADDKLVRLIPFLEYLATQQTKDVSPILNSFEDKKNLAEEFDHRVKKLKDKFYGDHKSGGNWAMTALGLGNSLGGSTKFPLDLIHEEGQKNYLMFMKMIEEEKEKIRIQQEQMGGQTFTLKDYVEGNLPSPEEQMKIQLEKQKEVDALFEEEKKKKKIAESK [chain 1 D235V, chain 1 R296S] | ~12%
